Earlier results in publication PMC4920389.

Biological target: Glu23 (UniProt position 23, FAVDEENKIGQ)
Assay: stability
Conditions: native (folded) state

## MNEI (single-chain monellin) (Dioscoreophyllum cumminsii)
  pKa: approximately 7.5
